Measured values from US20260146099A1 (SELVAX, published 2026).
Read-outs that look alike come from different tables or passages of the source.

B1: StP1.RD1.G9.H5 (antibody, V domains shown)
VH: QVQLQQSGPELVQPGASVKISCRASGYSFTSYYIHWVKQRPGQGLEWIGWIFPGSGNTKYNEKFRGKATLTADTSSSTAYTQVSSLTSEDSAVYFCARKSPYGNYAMDYWGQGTSVTVSS
VL: DILLTQSPAILSVSPGERVSFSCRASQSIGTSIHWYQQRTNGSPRLLIKSASESISGIPSRFSGSGSGTDFTLSINSVESEDIADYYCQQSNSWPYTFGGGTKLEIKRADAAPTVS
notes: also called purified monoclonal antibody from hybridoma cell-line StP1.RD1.G9.H5
B2: SVX-2001A (antibody)
heavy: QVQLQQSGPELVQPGASVKISCRASGYSFTSYYIHWVKQRPGQGLEWIGWIFPGSGNTKYNEKFRGKATLTADTSSSTAYTQVSSLTSEDSAVYFCARKSPYGNYAMDYWGQGTSVTVSSASTTAPSVFPLAPSCGSTSGSTVALACLVSGYFPEPVTVSWNSGSLTSGVHTFPSVLQSSGLHSLSSMVTVPSSRWPSETFTCNVVHPASNTKVDKPVFNECRCTDTPPCPVPEPLGGPSVLIFPPKPKDILRITRTPEVTCVVLDLGREDPEVQISWFVDGKEVHTAKTQSREQQFNGTYRVVSVLPIEHQDWLTGKEFKCRVNHIDLPSPIERTISKARGRAHKPSVYVLPPSPKELSSSDTVSITCLIKDFYPPDIDVEWQSNGQQEPERKHRMTPPQLDEDGSYFLYSKLSVDKSRWQQGDPFTCAVMHETLQNHYTDLSLSHSPGK
light: DILLTQSPAILSVSPGERVSFSCRASQSIGTSIHWYQQRTNGSPRLLIKSASESISGIPSRFSGSGSGTDFTLSINSVESEDIADYYCQQSNSWPYTFGGGTKLEIKRNDAQPAVYLFQPSPDQLHTGSASVVCLLNSFYPKDINVKWKVDGVIQDTGIQESVTEQDKDSTYSLSSTLTMSSTEYLSHELYSCEITHKSLPSTLIKSFQRSECQRVD
notes: also called chimeric dog IgGA, k antibody derived from StP1.RD1.G9.H5
B3: SVX-2001D (antibody)
heavy: QVQLQQSGPELVQPGASVKISCRASGYSFTSYYIHWVKQRPGQGLEWIGWIFPGSGNTKYNEKFRGKATLTADTSSSTAYTQVSSLTSEDSAVYFCARKSPYGNYAMDYWGQGTSVTVSSASTTAPSVFPLAPSCGSTSGSTVALACLVSGYFPEPVTVSWNSGSLTSGVHTFPSVLQSSGLYSLSSTVTVPSSRWPSETFTCNVVHPASNTKVDKPVPKESTCKCISPCPVPESLGGPSVFIFPPKPKDILRITRTPEITCVVLDLGREDPEVQISWFVDGKEVHTAKTQPREQQFNSTYRVVSVLPIEHQDWLTGKEFKCRVNHIGLPSPIERTISKARGQAHQPSVYVLPPSPKELSSSDTVTLTCLIKDFFPPEIDVEWQSNGQPEPESKYHTTAPQLDEDGSYFLYSKLSVDKSRWQQGDTFTCAVMHEALQNHYTDLSLSHSPGK
light: B2 light
notes: also called chimeric dog IgGD, k antibody derived from StP1.RD1.G9.H5
B4: SVX-2001C (antibody)
heavy: QVQLQQSGPELVQPGASVKISCRASGYSFTSYYIHWVKQRPGQGLEWIGWIFPGSGNTKYNEKFRGKATLTADTSSSTAYTQVSSLTSEDSAVYFCARKSPYGNYAMDYWGQGTSVTVSSASTTAPSVFPLAPSCGSQSGSTVALACLVSGYIPEPVTVSWNSVSLTSGVHTFPSVLQSSGLYSLSSMVTVPSSRWPSETFTCNVAHPATNTKVDKPVAKECECKCNCNNCPCPGCGLLGGPSVFIFPPKPKDILVTARTPTVTCVVVDLDPENPEVQISWFVDSKQVQTANTQPREEQSNGTYRVVSVLPIGHQDWLSGKQFKCKVNNKALPSPIEEIISKTPGQAHQPNVYVLPPSRDEMSKNTVTLTCLVKDFFPPEIDVEWQSNGQQEPESKYRMTPPQLDEDGSYFLYSKLSVDKSRWQRGDTFICAVMHEALHNHYTQISLSHSPGK
light: B2 light
notes: also called chimeric dog IgGC, k antibody derived from StP1.RD1.G9.H5
B5: SVX-2001B (antibody)
heavy: QVQLQQSGPELVQPGASVKISCRASGYSFTSYYIHWVKQRPGQGLEWIGWIFPGSGNTKYNEKFRGKATLTADTSSSTAYTQVSSLTSEDSAVYFCARKSPYGNYAMDYWGQGTSVTVSSASTTAPSVFPLAPSCGSTSGSTVALACLVSGYFPEPVTVSWNSGSLTSGVHTFPSVLQSSGLYSLSSMVTVPSSRWPSETFTCNVAHPASKTKVDKPVPKRENGRVPRPPDCPKCPAPEMLGGPSVFIFPPKPKDTLLIARTPEVTCVVVDLDPEDPEVQISWFVDGKQMQTAKTQPREEQFNGTYRVVSVLPIGHQDWLKGKQFTCKVNNKALPSPIERTISKARGQAHQPSVYVLPPSREELSKNTVSLTCLIKDFFPPDIDVEWQSNGQQEPESKYRTTPPQLDEDGSYFLYSKLSVDKSRWQRGDTFICAVMHEALHNHYTQESLSHSPGK
light: B2 light
notes: also called chimeric dog IgGB, k antibody derived from StP1.RD1.G9.H5
B6: StP1.RE2.D7b.B5 (antibody, V domains shown)
VH: QVQLQQSGPELVKPGASVKISCKASGYSFTSYYIHWVKQSPGQGLEWIGWIFPGSGNTKYNEKFKGKATLTADTSSSTAYMQLSSLTSEDSAVYFCARRGTTRDALDYWGQGTSVTVSS
VL: DILLTQSPAILSVSPGERVSFSCRASQSIGTSIHWFQQRTNGSPRVLIKYASQSISGIPSRFSGSGSGTDFTLSINSVESEDIADYYCQQSYTWPFTFGSGTKLAIKR

What was measured:
[1] = molecular target: Recombinant canine CD40 extracellular domain with human IgG1 Fc domain tag (canine; human) (UniProt Q7YRL5); test: SPR (Biacore T200), single-cycle kinetics, canine CD40-Fc immobilised, antibody 2-32 nM as analyte, bivalent analyte model, first site, average n=5
[2] = molecular target: T1, Recombinant canine CD40/TNFRSF5 protein (his tag) (canine, UniProt Q7YRL5 21-194); test: ELISA, absorbance on StP1a over absorbance on Irrelevant His Tag (RgN3a)
T1 construct: Sino Biological 70105-D08H, expressed in a human cell line from Met1-Ala194; signal peptide Met1-Pro20 predicted cleaved; also called antigen; StP1a (canine CD40)
T1 sequence: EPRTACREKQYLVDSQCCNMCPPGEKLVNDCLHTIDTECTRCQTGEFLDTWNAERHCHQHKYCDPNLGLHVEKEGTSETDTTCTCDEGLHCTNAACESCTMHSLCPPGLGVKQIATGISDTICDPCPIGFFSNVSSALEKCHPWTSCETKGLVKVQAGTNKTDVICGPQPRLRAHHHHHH

[3] = molecular target: T2, Recombinant canine CD40 extracellular domain with human IgG1 Fc domain tag (canine; human, UniProt Q7YRL5 21-194); test: SPR (Biacore T200), single-cycle kinetics, canine CD40-Fc immobilised, antibody 2-32 nM as analyte, bivalent analyte model, first site, average n=5
T2 construct: extracellular domain; Amine-coupled to a CM5 chip; also called caCD40-Fc; canine CD40-Fc; not shown: human IgG1 Fc domain tag
T2 sequence (looked up): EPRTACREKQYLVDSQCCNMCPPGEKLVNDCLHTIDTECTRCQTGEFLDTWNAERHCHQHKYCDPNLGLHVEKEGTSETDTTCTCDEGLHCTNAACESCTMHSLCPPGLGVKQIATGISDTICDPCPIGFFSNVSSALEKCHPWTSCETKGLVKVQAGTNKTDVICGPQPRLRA
Method: (§1) Recombinant canine CD40 extracellular domain with human IgG1 Fc domain tag (canine CD40-Fc) was immobilised to the surface of a Series S Sensor Chip CM5 using an Amine Coupling Kit. The reference surface for analysis was prepared by immobilising human IgG1 isotype control antibody to the Series S Sensor Chip CM5 using the same method.
(§2) Kinetics/affinity analysis was carried out using the Biacore method for single-cycle kinetics. Running buffer was HBS-EP+ buffer, pH 7.4. Injection parameters were sample contact time: 180 seconds, dissociation: 600 seconds, flow rate: 30 μl/min. The concentrations of purified anti-dog CD40 antibodies used for kinetics analysis were 2 nM, 4 nM, 8 nM, 16 nM and 32 nM. Regeneration was with 50 mM NaOH for 30 seconds at 30 μl/min. Experimental data was fitted to a bivalent analyte binding model.

[4] = molecular target: T2, Recombinant canine CD40 extracellular …; test: SPR (Biacore T200), single-cycle kinetics, canine CD40-Fc immobilised, antibody 2-32 nM as analyte, bivalent analyte model, first site, average n=6
Method: as §1
as §2, with “chimeric anti-CD40” for “purified anti-dog CD40”

[5] = molecular target: T2, Recombinant canine CD40 extracellular …; test: SPR (Biacore T200), single-cycle kinetics, canine CD40-Fc immobilised, antibody 2-32 nM as analyte, bivalent analyte model, first site, average n=5; remark: listed apart in the source
Method: as §1
as §2, with “chimeric anti-CD40” for “purified anti-dog CD40”

[6] = molecular target: T1, Recombinant canine CD40/TNFRSF5 protein …; test: ELISA, absorbance on StP1a over absorbance on Irrelevant His Tag (RgN3a); remark: listed apart in the source

Row | Molecule | Kd [5] | koff [5] | kon [5] | also measured
1 | anti-human CD40 antibody 21.4.1 |  |  |  | Kd [1]: 257 nM; koff [1]: 0.0143 s⁻¹; kon [1]: 58000 M⁻¹ s⁻¹
2 | B1 |  |  |  | positive:negative ratio [2]: 12.4; Kd [3]: 5.24 nM; koff [3]: 0.00157 s⁻¹; kon [3]: 312000 M⁻¹ s⁻¹; Kd [4]: 2.85 nM; koff [4]: 0.00106 s⁻¹; kon [4]: 372000 M⁻¹ s⁻¹
3 | B2 | 1.85 nM | 0.000659 s⁻¹ | 370000 M⁻¹ s⁻¹ | 
4 | B3 | 2.6 nM | 0.000932 s⁻¹ | 359000 M⁻¹ s⁻¹ | 
5 | B4 | 3.36 nM | 0.00172 s⁻¹ | 519000 M⁻¹ s⁻¹ | 
6 | B5 | 3.36 nM | 0.00155 s⁻¹ | 461000 M⁻¹ s⁻¹ | 
7 | B6 |  |  |  | positive:negative ratio [6]: 10.8
